# Laboratory results taken from publication PMC11871066 (2025).
# Target: Negative control peptide 2014 (1907 with L145E and L152E) (UniProt P49023 141-153, S143 (i,i + 7 staple position), i,i + 7 all-hydrocarbon staple as in 1907)
# Test: SPR
binder,measurement,value
"Biotinylated AviTag FAK FAT protein (domain or fragment, biotin (biotinylated AviTag)) MAAAYLDPNLNHTPNSSTKTHLGTGMERSPGAMERVLKVFHYFESNSEPTTWASIIRHGDATDVRGIIQKIVDSHKVKHVACYGFRLSHLRSEEVHWLHVDMGVSSVREKYELAHPPEEWKYELRIRYLPKGFLNQFTEDKPTLNFFYQQVKSDYMLEIADQVDQEIALKLGCLEIRRSYWEMRGNALEKKSNYEVLEKDVGLKRFFPKSLLDSVKAKTLRKLIQQTFRQFANLNREESILKFFEILSPVYRFDKECFKCALGSSWIISVELAIGPEEGISYLTDKGCNPTHLADFTQVQTIQYSNSEDKDRKGMLQLKIAGAPEPLTVTAPSLTIAENMADLIDGYCRLVNGTSQSFIIRPQKEGERALPSIPKLANSEKQGMRTHAVSVSETDDYAEIIDEEDTYTMPSTRDYEIQRERIELGRCIGEGQFGDVHQGIYMSPENPALAVAIKTCKNCTSDSVREKFLQEALTMRQFDHPHIVKLIGVITENPVWIIMELCTLGELRSFLQVRKYSLDLASLILYAYQLSTALAYLESKRFVHRDIAARNVLVSSNDCVKLGDFGLSRYMEDSTYYKASKGKLPIKWMAPESINFRRFTSASDVWMFGVCMWEILMHGVKPFQGVKNNDVIGRIENGERLPMPPNCPPTLYSLMTKCWAYDPSRRPRFTELKAQLSTILEEEKAQQEERMRMESRRQATVSWDSGGSDEAPPKPSRPGYPSPRSSEGFYPSPQHMVQTNHYQVSGYPGSHGITAMAGSIYPGQASLLDQTDSWNHRPQEIAMWQPNVEDSTVLDLRGIGQVLPTHLMEERLIRQQQEMEEDQRWLEKEERFLKPDVRLSRGSIDREDGSLQGPIGNQHIYQPVGKPDPAAPPKKPPRPGAPGHLGSLASLSSPADSYNEGVKLQPQEISPPPTANLDRSNDKVYENVTGLVKAVIEMSSKIQPAPPEEYVPMVKEVGLALRTLLATVDETIPLLPASTHREIEMAQKLLNSDLGELINKMKLAQQYVMTSLQQEYKKQMLTAAHALAVDAKNLLDVIDQARLKMLGQTRPH",Kd,> 200 µM
